Assay results reported in publication PMC5500849, “Cobamide-mediated enzymatic reductive dehalogenation via long-range electron transfer” (Nature Communications, 2017).

Test system: Oc1c(Br)cc(Br)cc1Br
Assay: purified protein
Conditions: reduced methyl viologen 0.5 mM / Ti(III) citrate 1.4 mM, 100 mM Tris-HCl pH 7.5, 22 °C, no NH4+

## PceA (PceA–Strep) (Sulfurospirillum multivorans)
  Km: 158 µM
  kcat: 8 s⁻¹
